The values that follow come from US20210115144A1 (Dana-Farber, published 2021).

The target of assay [1] is T1, human HHLA2 expressed on transfected cells (300.19 mouse pre-B cells; CHO cells) (human, UniProt Q9UM44 23-414).
T1 construct: also called B7-H7; B7H7
T1 sequence: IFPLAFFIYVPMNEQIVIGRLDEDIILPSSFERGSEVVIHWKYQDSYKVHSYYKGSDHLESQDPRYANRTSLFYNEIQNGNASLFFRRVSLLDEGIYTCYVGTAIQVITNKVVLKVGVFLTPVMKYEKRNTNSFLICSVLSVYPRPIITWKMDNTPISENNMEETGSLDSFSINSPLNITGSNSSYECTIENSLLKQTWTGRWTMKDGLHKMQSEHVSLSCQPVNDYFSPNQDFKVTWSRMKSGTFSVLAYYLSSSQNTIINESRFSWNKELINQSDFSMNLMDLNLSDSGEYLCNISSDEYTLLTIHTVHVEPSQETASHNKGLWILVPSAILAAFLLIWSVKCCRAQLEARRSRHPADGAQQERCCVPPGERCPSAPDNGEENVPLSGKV
The assay can be described thus: flow cytometry, mAb on HHLA2-transfected 300.19 mouse pre-B cells. For orientation: Flow cytometry measures light scatter and fluorescence of single cells or particles in a stream.

Assay [2] addresses T1, human HHLA2 expressed on transfected …. The assay can be described thus: flow cytometry, mAb titrated on human HHLA2-transfected 300.19 pre-B cells. The method, then:
(§1) Binding of different HHLA2 mAbs to human and cynomolgus monkey HHLA2 was also tested and EC50 binding analysis was conducted (FIGS. 13A and 13B). […] HHLA2 mAb binding to transfected 300.19 cells was detected with PE-labeled goat anti-mouse IgG (H+L). EC50 analysis was conducted using Graph Pad Prism.

Assay [3] concerns the target T2, cynomolgus monkey HHLA2 expressed on transfected 300.19 pre-B cells (cynomolgus monkey).
T2 construct: whole, on cells
The assay can be described thus: flow cytometry, mAb titrated on cynomolgus monkey HHLA2-transfected 300.19 pre-B cells. How it is done:
FIGS. 13A and 13B show HHLA2 mAb binding to human and cynomolgus monkey HHLA2. […] HHLA2 mAb binding to transfected 300.19 cells was detected with a PE-labeled goat anti-mouse IgG (H+L) by flow cytometry.
as §1

Assay [4] deals with T1, human HHLA2 expressed on transfected …. The assay can be described thus: flow cytometry, mAb titrated on HHLA2-transfected 300.19 pre-B cells, PE goat anti-mouse IgG. The method, then: (§2) HHLA2 mAb cell binding and receptor blockade experiments were then performed. […] HHLA2 mAb binding to transfected 300.19 cells was detected with PE-labeled goat anti-mouse IgG (H+L). For HHLA2 mAb blocking experiments different concentration of HHLA2 mAbs were pre-incubated with 4 ug/ml of HHLA2-mIgG2a at a 1:1 ratio for 30 minutes and added to either TMIGD2 or KIR3DL3 transfected 293T cells and incubated for 30 minutes at 4° C. HHLA2-mIgG2a binding to TMIGD2 or KIR3DL3 transfected 293T cells was detected with a PE labeled Fab2 goat anti-mIgG2a antibody. EC50 and IC50 analyses were conducted using Graph Pad Prism. It was shown that HHLA2 mAb clone 2C4 has desired properties of complete KIR3DL3 blockade and partial TMIGD2 blockade (Table 6).

The target is the same in assay [5]. The description is as above. The method, then:
as §1
The source holds these as a separate data set.

Assay [6] deals with T3, human HHLA2-mIgG2a fusion protein (human; mouse, UniProt Q9UM44 23-344, limits assumed).
T3 construct: also called hHHLA2-mIgG2a; HHLA2-Fc
T3 sequence: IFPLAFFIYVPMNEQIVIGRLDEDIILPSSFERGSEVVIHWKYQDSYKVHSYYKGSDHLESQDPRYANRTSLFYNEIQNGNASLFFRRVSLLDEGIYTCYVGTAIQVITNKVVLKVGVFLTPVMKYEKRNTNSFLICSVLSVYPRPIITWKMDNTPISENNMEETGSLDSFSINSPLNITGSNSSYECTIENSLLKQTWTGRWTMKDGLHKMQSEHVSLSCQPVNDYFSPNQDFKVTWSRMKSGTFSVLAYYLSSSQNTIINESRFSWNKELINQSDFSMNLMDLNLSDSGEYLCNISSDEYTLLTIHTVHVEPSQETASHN
The assay can be described thus: flow cytometry, mAb pre-incubated with 4 ug/ml HHLA2-mIgG2a; blockade of its binding to TMIGD2-transfected 293T cells. How it is done: as §2

The target of assay [7] is T3, human HHLA2-mIgG2a fusion protein. The assay can be described thus: flow cytometry, mAb pre-incubated with 4 ug/ml HHLA2-mIgG2a; blockade of its binding to KIR3DL3-transfected 293T cells. The method, then: as §2
Assay [8] shares this target. The assay can be described thus: flow cytometry, mAb pre-incubated with 4 ug/ml HHLA2-mIgG2a; blockade of its binding to TMIGD2-transfected 300.19 pre-B cells. The method, then:
(§3) HHLA2 mAb binding to transfected 300.19 cells was detected with PE-labeled goat anti-mouse IgG (H+L). […] EC50 and IC50 analyses were conducted using Graph Pad Prism. It was shown that HHLA2 mAb clone 2C4 has desired properties of complete KIR3DL3 blockade and partial TMIGD2 blockade (Table 7).

For assay [9] the target is unchanged. The assay can be described thus: flow cytometry, mAb pre-incubated with 4 ug/ml HHLA2-mIgG2a; blockade of its binding to KIR3DL3-transfected 300.19 pre-B cells. The method, then:
as §3

The target of assay [10] is T1, human HHLA2 expressed on transfected …. The assay can be described thus: flow cytometry, staining and sorting of HHLA2-transfected 300.19 cells. The method, then: In particular, binding affinity for each anti-HHLA2 antibody was assayed. The HHLA2 cDNA and a vector encoding puromycin resistance were co-transfected by electroporation (300 volts, 1600 microfarads) into mouse 300.19 cells and selected with media containing 5 μg/ml puromycin. Cells expressing HHLA2 were identified by staining with TMIGD2-human Fc fusion protein and goat anti-human Fc antibody conjugated to phycoerythrin and single cell sorted by flow cytometry. Expression of HHLA2 in individual clones was confirmed by flow cytometry as described above. HHLA2-transfected 300.19 cells were titrated with anti-HHLA2 mAbs (FIG. 1A).

In assay [11] the target is T3, human HHLA2-mIgG2a fusion protein. The assay can be described thus: cell microarray, soluble HHLA2-mIg fusion protein on transfected HEK293 cells.
Assay [12] shares this target. The assay can be described thus: cell microarray, HHLA2-mIgG2a on fixed transfected HEK293 cells, AF647 anti-mouse IgG detection. The method, then:
Human HHLA2-mIgG2a fusion protein was added to slides of fixed, transfected HEK293 cell slides at a 20 ug/ml concentration, and the protein was detected with an AF647 labeled anti-mouse IgG detection antibody. Two replicate slides were screened for each of the 13 slide sets. Fluorescent images were analyzed and quantitated (for transfection efficiency) using ImageQuant software (GE). A protein ‘hit’ was defined as duplicate spots showing a raised signal compared to background levels. This was achieved by visual inspection using the images gridded on the ImageQuant software.
Addition of the AF647 labeled anti-mouse IgG detection antibody alone in the absence of HHLA2-mIgG2a produced no signal. The selectivity of HHLA2 binding to KIR3DL3 was evaluated using a panel of 14 KIR receptors arrayed on slides.

B1: anti-HHLA2 monoclonal antibody 2C4 (antibody, IgG1, V domains shown)
VH: EVHLQQSGPELEKPGVSVKISCKASGFSFTDYNMNWVKQSSGKSLEWIGNIDPYYGRINYNQKFKGKATLSVDKSSSTAYMHLKSLTSEDSAVYYCATGAYTSGYSWFAYWGQGTLVTVSA
VL: ENVLTQSPGIMAASLGEKVTMTCSASSSVSSSYLHWYQQRSGASPKPLIHRTSNLASGVPARFSGSGSGTSYSLTISSVEAEDDATYYCQQWSGYPFTFGSGTKLEIK
notes: also called 499.5.2C4.E6.6.8.1; MHC2562
In the case of B1, the EC50 (usually the concentration at which the effect is half-maximal) in [1] is 0.24 µg/mL; in assay [2] it was 0.29 µg/mL; in assay [3] it was 0.47 µg/mL; in [4], 0.24 µg/mL; in [5], 0.29 µg/mL. Besides, the IC50 (in general, the midpoint of a concentration-inhibition curve) in [6] amounted to 28.2 µg/mL; in assay [7], 0.52 µg/mL; in assay [8], 7.3 µg/mL; in assay [9] it was 0.97 µg/mL.

B2: human TMIGD2-human IgG1 fusion protein (R&D Systems catalog #8316-TR-050) (Fc fusion, UniProt Q96BF3 23-150, looked up)
chain: LSVQQGPNLLQVRQGSQATLVCQVDQATAWERLRVKWTKDGAILCQPYITNGSLSLGVCGPQGRLSWQAPSHLTLQLDPVSLNHSGAYVCWAAVEIPELEEAEGNITRLFVDPDDPTQNRNRIASFPG
notes: Bought reagent; also called TMIGD2-hIgG; TMIGD2-human Fc fusion protein; not shown: human IgG1 Fc portion of the bought fusion protein
As for B2, the binding result in assay [10] is given as “binds”.

B3: human TMIGD2 expressed on transfected cells (293T, 300.19, HEK293 microarray, Jurkat) (receptor)
chain: LSVQQGPNLLQVRQGSQATLVCQVDQATAWERLRVKWTKDGAILCQPYITNGSLSLGVCGPQGRLSWQAPSHLTLQLDPVSLNHSGAYVCWAAVEIPELEEAEGNITRLFVDPDDPTQNRNRIASFPGFLFVLLGVGSMGVAAIVWGAWFWGRRSCQQRDSGNSPGNAFYSNVLYRPRGAPKKSEDCSGEGKDQRGQSIYSTSFPQPAPRQPHLASRPCPSPRPCPSPRPGHPVSMVRVSPRPSPTQQPRPKGFPKVGEE
notes: The cDNA used in 293T and 300.19 cells is not tied to an entry in words; also called CD28H; IGPR1
As for B3, the binding result in assay [11] is reported as “binds”.

B4: KIR2DS2 (receptor, human, UniProt P43631 22-304, looked up)
chain: HEGVHRKPSLLAHPGPLVKSEETVILQCWSDVRFEHFLLHREGKYKDTLHLIGEHHDGVSKANFSIGPMMQDLAGTYRCYGSVTHSPYQLSAPSDPLDIVITGLYEKPSLSAQPGPTVLAGESVTLSCSSRSSYDMYHLSREGEAHERRFSAGPKVNGTFQADFPLGPATHGGTYRCFGSFRDSPYEWSNSSDPLLVSVTGNPSNSWPSPTEPSSKTGNPRHLHVLIGTSVVKIPFTILLFFLLHRWCSNKKNAAVMDQEPAGNRTVNSEDSDEQDHQEVSYA
notes: whole, on cells
For B4, the binding result in [12] is recorded as “no binding (tested: 20 ug/ml)”.

B5: KIR2DS3 (receptor, human, UniProt Q14952 22-304, looked up)
chain: HEGFRRKPSLLAHPGRLVKSEETVILQCWSDVMFEHFLLHREGTFNDTLRLIGEHIDGVSKANFSIGRMRQDLAGTYRCYGSVPHSPYQFSAPSDPLDIVITGLYEKPSLSAQPGPTVLAGESVTLSCSSWSSYDMYHLSTEGEAHERRFSAGPKVNGTFQADFPLGPATQGGTYRCFGSFHDSPYEWSKSSDPLLVSVTGNPSNSWPSPTEPSSKTGNPRHLHVLIGTSVVKLPFTILLFFLLHRWCSDKKNASVMDQGPAGNRTVNREDSDEQDHQEVSYA
notes: whole, on cells
On to B5, for which the binding result in assay [12] is reported as “no binding (tested: 20 ug/ml)”.

B6: anti-HHLA2 monoclonal antibody 6F10 (antibody, IgG1, V domains shown)
VH: QVHLQQSAAELARPGASVKMSCKASGYTFTTYTMHWVKQRPGQGLEWIGHINPSSGYTDYNQKFKDKTTLTADKSSSTAYMQLNSLTSEDSAVYYCARHPWDSDYWGQGTTLTVSS
VL: DIQMTQSPASLSASVGETVTITCRASENIDSYLAWYQQKQGRSPQLLVYAATNLADGVPSRFSGSGSGTQFSLQINRLQSEDVARYYCQHYYITPFTFGSGTKLEIA
notes: also called 499.5.6F10.A4.10; MHC2557
Consider B6, for which the EC50 in [1] amounted to 0.25 µg/mL; in assay [2], 0.22 µg/mL; in assay [3] it was 0.4 µg/mL; in assay [4] it was 0.25 µg/mL; in [5] it was 0.22 µg/mL. Besides, the IC50 turned out to be 0.55 µg/mL in [6], 0.9 µg/mL in assay [7], 0.92 µg/mL in assay [8] and 0.74 µg/mL in assay [9].
